From patent publication CN114984227A (BIO THERA SOLUTIONS LTD, dated 2022)

B1: 参照抗体Tiragolumab (antibody, V domains shown)
VH: EVQLQQSGPGLVKPSQTLSLTCAISGDSVSSNSAAWNWIRQSPSRGLEWLGKTYYRFKWYSDYAVSVKGRITINPDTSKNQFSLQLNSVTPEDTAVFYCTRESTTYDLLAGPFDYWGQGTLVTVSS
VL: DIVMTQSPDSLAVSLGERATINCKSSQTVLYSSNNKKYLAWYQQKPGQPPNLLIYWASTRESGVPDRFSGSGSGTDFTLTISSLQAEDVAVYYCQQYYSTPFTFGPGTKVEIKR
B2: 抗体h10D8OF (antibody, human IgG1, kappa, V domains shown)
VH: QVQLVESGGGVVQPGRSLRLDCKASGFTFSSYGMSWVRQAPGKGLELVATINSNGGSTYYPDSVKGRFTISRDNSKNTLFLQMNSLRAEDTAVYYCARLGTGTLGFAYWGQGTLVTVSS
VL: EIVMTQSPATLSLSPGERATLSCKASQDVKTAVSWYQQKPGQAPRLLIYWASTRATGIPARFSGSGSGTDYTLTISSLEPEDFAVYYCQQHYSTPWTFGQGTKVEIKR
notes: also called 抗TIGIT抗体
B3: 抗体h10D8OFKF (antibody, human IgG1, kappa, V domains shown)
VH: B2 VH
VL: B2 VL
notes: also called 抗TIGIT抗体

Target: T1, 人TIGIT (TIGIT-Jurkat细胞表面) (human, UniProt Q495A1 22-244)
T1 construct: whole, on cells
T1 sequence (looked up): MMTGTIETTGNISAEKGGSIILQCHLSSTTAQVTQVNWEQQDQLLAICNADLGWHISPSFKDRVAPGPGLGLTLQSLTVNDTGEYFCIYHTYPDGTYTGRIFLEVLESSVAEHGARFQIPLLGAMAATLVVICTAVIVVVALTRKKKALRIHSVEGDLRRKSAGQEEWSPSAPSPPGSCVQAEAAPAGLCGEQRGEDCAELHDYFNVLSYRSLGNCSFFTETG
Test: flow cytometry competition: blocking of PVR-Fc-bio (12.5 nM) binding to TIGIT-Jurkat cells

| Binder | IC50 |
| --- | --- |
| B1 | 2.82 nM |
| B2 | 0.441 nM |
| B3 | 0.742 nM |
